Data published in patent US20240263160A1 (BIOMARIN PHARMACEUTICAL, published 2024).

Biological target: IGF2 receptor (cation-independent mannose-6-phosphate receptor)
Assay: IGF2 receptor binding assay; average over the BMN001 lots used in the nonclinical studies; format and competitor not described

IC50: 0.28 nM
B1: BMN001 therapeutic fusion protein (mature human Naglu fused through a rigid linker to a furin-resistant IGF-II peptide, amino acids 8-67 of mature human IGF-II … (enzyme)
chain: DEAREAAAVRALVARLLGPGPAADFSVSVERALAAKPGLDTYSLGGGGAARVRVRGSTGVAAAAGLHRYLRDFCGCHVAWSGSQLRLPRPLPAVPGELTEATPNRYRYYQNVCTQSYSFVWWDWARWEREIDWMALNGINLALAWSGQEAIWQRVYLALGLTQAEINEFFTGPAFLAWGRMGNLHTWDGPLPPSWHIKQLYLQHRVLDQMRSFGMTPVLPAFAGHVPEAVTRVFPQVNVTKMGSWGHFNCSYSCSFLLAPEDPIFPIIGSLFLRELIKEFGTDHIYGADTFNEMQPPSSEPSYLAAATTAVYEAMTAVDTEAVWLLQGWLFQHQPQFWGPAQIRAVLGAVPRGRLLVLDLFAESQPVYTRTASFQGQPFIWCMLHNFGGNHGLFGALEAVNGGPEAARLFPNSTMVGTGMAPEGISQNEVVYSLMAELGWRKDPVPDLAAWVTSFAARRYGVSHPDAGAAWRLLLRSVYNCSGEACRGHNRSPLVRRPSLQMNTSIWYNRSDVFEAWRLLLTSAPSLATSPAFRYDLLDLTRQAVQELVSLYYEEARSAYLSKELASLLRAGGVLAYELLPALDEVLASDSRFLLGSWLEQARAAAVSEAEADFYEQNSRYQLTLWGPEGNILDYANKQLAGLVANYYTPRWRLFLEALVDSVAQGIPFQQHQFDKNVFQLEQAFVLSKQRYPSQPRGDTVDLAKKIFLKYYPRWVAGSWGAPGGGSPAPAPTPAPAPTPAPAGGGPSGAPLCGGELVDTLQFVCGDRGFYFSRPASRVSARSRGIVEECCFRSCDLALLETYCATPAKSE
notes: also called Naglu/IGF-II fusion protein
